Test results published in PMC7870846, “Incorporation of sensing modalities into de novo designed fluorescence-activating proteins” (Nature Communications, 2021).
No end group written: not given here.

Tests used:
Test in all cases: other fluorescence titration; MBP-tagged fragment titrated into its complementary MBP-tagged fragment; 25.0 uM DFHBI-1T; high-salt Tev cleavage buffer (25.0 mM Tris, 100 mM NaCl, pH 8.00); ex 468 nm, em 530 nm; estimated Kd, signal did not plateau
Details in all cases: both partners purified
[1] = target: T1, MBP-tagged split mFAP fragment m14
T1 chain: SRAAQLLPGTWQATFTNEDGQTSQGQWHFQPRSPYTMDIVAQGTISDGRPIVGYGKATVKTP

[2] = target: T2, MBP-tagged split mFAP fragment m16
T2 chain: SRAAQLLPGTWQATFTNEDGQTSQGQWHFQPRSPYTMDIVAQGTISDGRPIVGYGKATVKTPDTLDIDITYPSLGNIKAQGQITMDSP

[3] = target: T3, MBP-tagged split mFAP fragment m17
T3 chain: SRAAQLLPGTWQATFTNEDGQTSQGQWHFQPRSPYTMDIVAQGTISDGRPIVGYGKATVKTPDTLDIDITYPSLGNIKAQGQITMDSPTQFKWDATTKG

B1: MBP-tagged split mFAP fragment m58 (domain or fragment)
chain: DTLDIDITYPSLGNIKAQGQITMDSPTQFKWDATTKGENDFHGRLTGTLQRQE
modifications: not fully specified
For B1, the Kd [1] was ≥ 22 µM.

TQFKWDATTKGENDFHGRLTGTLQRQE (domain or fragment, not fully specified) [MBP-tagged split mFAP fragment m78] was tested, and the Kd [2] was ≥ 232 µM.

In the case of ENDFHGRLTGTLQRQE (domain or fragment, not fully specified) [MBP-tagged split mFAP fragment m8], the Kd [3] is reported as ≥ 354 µM.
